Reference: publication PMC4576867 (The Journal of Cell Biology, 2015)

Target: the molecule itself
Experiment: AUC

B1: cytosolic domain of S. cerevisiae Sey1p (residues 1-680) (domain or fragment, UniProt Q99287 1-680, looked up)
chain: MADRPAIQLIDEEKEFHQSALQYFQQCIGNRDVGLDYHVISVFGSQSSGKSTLLNVLFNTNFDTMDAQVKRQQTTKGIWLAHTKQVNTTIEIDNDRPDIFVLDVEGSDGSERGEDQDFERKAALFAIAVSEVLIVNMWEQQIGLYQGNNMALLKTVFEVNLSLFGKNDNDHKVLLLFVIRDHVGVTPLSSLSDSVTRELEKIWTELSKPAGCEGSSLYDYFDLKFVGLAHKLLQEDKFTQDVKKLGDSFVMKGTENYYFKPQYHHRLPLDGWTMYAENCWDQIERNKDLDLPTQQILVARFKTEEISNEALEEFISKYDESIAPLKGNLGSLTSQLVKLKEECLTKYDEQASRYARNVYMEKREALNTKLNSHISGTINEFLESLMEKLWDDLKLEVSSRDKATTSFVESVAAGKSKIEKEFNESMETFKKLGLLISNEEITCKFSDDIEERIKQLRDAELKAKIGRIKKNLVPELKDHVIHLLSHPSKKVWDDIMNDFESTIKDNISAYQVEKDKYDFKIGLSESENAKIYKNIRILAWRTLDTTVHDYLKIDTIVSILRDRFEDVFRYDAEGSPRLWKTEEEIDGAFRVAKEHALEVFEVLSLAVTSDNVEIIPDVPMAEEESGEDNEIYRDNEGVFHSRRFAHILTELQKENVLDQFRRQINITVLDSKRSIITTRT
- stoichiometry N: 2
